# Source: the DeepSol protein solubility set
# Assay: soluble on expression in E. coli; label from the status in PepcDB or PDB records
row,Sequence,soluble on expression in E. coli
1,MSTHASAHGSTHTSTHHPIAVIGAGLGGLAAARVLHVHGIEAAVYEADASPTARHQGGMLDIHGESGQAALRAAGLYEEFRAIVHPGGEATRILDKDGTVRHEEGDRPEEGDRPEVDRNDLRRILLDSLPEGTIRWGAKVTGARALGGGRHEVTLADGSVFTTDVLIGADGAWSRIRPLLSPATPAYTGISFVEADLHEAATRHRAAAELVGGGSMFALAEGKGILTHLETDGSVHAYVALKADEDWLSTIDFTGTDTDTAKKTLLTHFEDWDDRLRALITDADGALVPRLIHALPVDHRWERTAGVTLLGDAAHLMSPFAGEGANLALLDGAELATALAAHPADPESALTAYERSLFPRSHRAAGESAANLTFMFGPNALEELVGMMSGHEPSDRLEHHHHHH,soluble
2,MDIKVHFHDFSHVRIDCEESTFHELRDFFSFEADGYRFNPRFRYGNWDGRIRLLDYNRLLPFGLVGQIKKFCDNFGYKAWIDPQINEKEELSRKDFDEWLSKLEIYSGNKRIEPHWYQKDAVFEGLVNRRRILNLPTSAGRSLIQALLARYYLENYEGKILIIVPTTALTTQMADDFVDYRLFSHAMIKKIGGGASKDDKYKNDAPVVVGTWQTVVKQPKEWFSQFGMMMNDECHLATGKSISSIISGLNNCMFKFGLSGSLRDGKANIMQYVGMFGEIFKPVTTSKLMEDGQVTELKINSIFLRYPDEFTTKLKGKTYQEEIKIITGLSKRNKWIAKLAIKLAQKDENAFVMFKHVSHGKAIFDLIKNEYDKVYYVSGEVDTETRNIMKTLAENGKGIIIVASYGVFSTGISVKNLHHVVLAHGVKSKIIVLQTIGRVLRKHGSKTIATVWDLIDDAGVKPKSANTKKKYVHLNYLLKHGIDRIQRYADEKFNYVMKTVNLLEHHHHHH,soluble
3,MTAPSQVLKIRRPDDWHVHLRDGDMLKTVVPYTSEIYGRAIVMPNLASPITTVDAAIAYRQRILDAVPAGHDFTPLMTCYLTDSLDADELERGFHEGVFTAAKLYPANATTNSSHGVTSVDAIMPVLERMEKLGIPLLVHGEVTHADVDIFDREARFIDTVMEPLRQRLTALKVVFEHITTKDAAQYVRDGNDYLAATITPQHLMFNRNDMLVGGIRPHLYCLPILKRNIHQQALRELVASGFTRAFLGTDSAPHSRHRKETSCGCAGCFNAPSALGSYAAVFEEMNALAHFEAFCSLNGPQFYGLPMNTGWVELVRDEQQIPGNIALADDSLVPFLAGETVRWSVKK,not soluble
4,MSLENIMTLPKIKQVRAWFTGGATAEKGAGGGDYHDQGANHWIDDHIATPMSKYRDYEQLRQSFGINVLGTLVVEVEAENGQTGFAVSTAGEMGCFIVEKHLNRFIEGKCVSDIKLIHDQMLNATLYYSGSGGLVMNTISCVDLALWDLFGKVVGLPVYKLLGGAVRDEIQFYATGARPDLAKEMGFIGGKMPTHWGPHDGDAGIRKDAAMVADMREKCGEDFWLMLDCWMSQDVNYATKLAHACAPYNLKWIEECLPPQQYEGYRELKRNAPVGMMVTSGEHHGTLQSFRTLSETGIDIMQPDVGWCGGLTTLVEIAAIAKSRGQLVVPHGSSVYSHHAVITFTNTPFSEFLMTSPDCSTMRPQFDPILLNEPVPVNGRIHKSVLDKPGFGVELNRDCNLKRPYSHEGHHHHHH,soluble
5,PVYVDFDVPADLEDDALEALEVARDTGAVKKGTNETTKSIERGSAELVFVAEDVQPEEIVMHIPELADEKGVPFIFVEQQDDLGHAAGLEVGSAAAAVTDAGAAATVLEEIADKVEELR,soluble
6,MFVDRQRIDLLNRLIDARVDLAAYVQLRKAKGYMSVSESNHLRDNFFKLNRELHDKSLRLNLHLDQEEWSALHHAEEALATAAVCLMSGHHDCPTVITVNADKLENCLMSLTLSIQSLQKHAMLEKA,soluble
7,AHHHHHHGSTWREILRKEGFLDLGEFIVELVYIDCPCEPIPPTLAIYDKKGDEWYKVEEAPNVQNYREAVEWAIEVLERIRDGENVKLVSLDGPAPPKVMKRLSLALQKLTE,not soluble
8,MSLDIRLLIMPLPDFALLPFGAFLDKLRFSADDEDYSQQRYCSWMVAGLSLEPVPSSSGAVLQVEAIADQLDLDLFDYLVVFGGRSAMATAALAPRYQALLRQAAKAGVKLVGVDNGAFLLAACGLLQGHKVVVHWRHEAEFRAAFPQLQLLREQLYCIDGNRITCAGGTAAIDLAVALLSRACGRTRALKGLADMLVDETREGHHHHHH,soluble
9,MGSDKIHHHHHHVSGPGLLPFRLTICGIDELPDHAAAGVSHVVTILDPQWPDPEHFALYPPHSRTIWRFHDIVNPQEGQAHPTMRDVEAILDYGTALKTETVEHLLIHCHMGISRSTATAIILMAQHNPGREAEAFTHLKAIRPFSWPNSRMVRMADDQLKRKGALVDAMRLHHHGVARRHPDKMAYLRTSERAAEVPPEE,not soluble
10,HETENAWRETEERLAATYQAATIGIAESDADGRLLRVNDAFCTMLGRSREQLLNMTFLDYTHEDDRDEEARCYARQVSGETDTYAIRKRAVKADGTVIYLDVYSSTVRDRTGRFRYGVRVLLDVT,not soluble
11,MGAMIVKEVYETAEKIKSMEIRGAGRIARAAAQALMIQAEKSKAKEPEELWNELKVASKILYNTRPTAVSLPNALRYVMHRVKAAYLGGADLETLRFTAINSAKEFIYNSEKAIERIGEIGAKRIEDGDIIMTHCHSKAAISVMKKAFEQGKNIKVIVTETRPKWQGKITAKELASYGIPVIYIVDSAARHYMKMTDKVVMGADSITANGAVINKIGTSLIALTAKEHRVWVMIAAETYKFHPATMLGQLVEIEMRDPTEVIPEEELRTWPKNIEVWNPAFDVTPPEYIDVIITERGIIPPYAAIDILKEEFGWALKYKEPWED,soluble
12,MGHHHHHHSHMDALSPSPAIPSNTDYPGPHSFDVSFQQSSTAKSATWTYSTELKKLYCQIAKTCPIQIKVMTPPPQGAVIRAMPVYKKAEHVTEVVKRCPNHELSREFNEGQIAPPSHLIRVEGNSHAQYVEDPITGRQSVLVPYEPPQVGTEFTTVLYNFMCNSSCVGGMNRRPILIIVTLETRDGQVLGRRCFEARICACPGRDRKADEDSIRKQQVSDSTKNGDGTKRPFRQNTHGIQM,not soluble
13,NLKVEFYNSNPSDTTNSINPQFKVTNTGSSAIDLSKLTLRYYYTVDGQKDQTFWCDHAAIIGSNGSYNGITSNVKGTFVKMSSSTNNADTYLEISFTGGTLEPGAHVQIQGRFAKNDWSNYTQSNDYSFKSASQFVEWDQVTAYLNGVLVWGKEP,soluble
14,MAHHHHHHMGTLEAQTQGPGSMVTANSTVKVGNVTFSNSAPLALIAGPCQMETRDHAFEMAGRLKEMTDKLGIGLVYKSSFDKANRTSLKAARGIGLEKALEVFSDLKKEYGFPVLTDIHTEEQCAAVAPVVDVLQIPAFLCRQTDLLIAAARTGRVVNVKKGQFLAPWDMKNVLAKITESGNPNVLATERGVSFGYNTLVSDMRALPIMAGLGAPVIFDATHSVQQPGGQGGSTGGQREFVETLARAAVAVGVAGFFIETHEDPDNAPSDGPNMVPIDKMPALLEKLMAFDRIAKAL,soluble
15,MSLTPTVMVVDESRITFLAVKNALEKDGFNVIWAKNEQEAFTFLRREKIDLVFVDVFEGEESLNLIRRIREEFPDTKVAVLSAYVDKDLIINSVKAGAVDYILKPFRLDYLLERVKKIISSTPRVTVSLRKNIEDLEITLKFEDIVRKEIKRSNRTGSRFCVMYVKFEDIMRDYETIKKFFRETDYVLPISASEYLFVLTLTGKHGIEAVTRRMKEKLSERFSYTYVCYPDDGKTYEEIILTLKDRMAKPRGEGHHHHHH,soluble
16,MIDFGNFYSLIAKNHLSHWLETLPAQIANWQREQQHGLFKQWSNAVEFLPEIKPYRLDLLHSVTAESEEPLSAGQIKRIETLMRNLMPWRKGPFSLYGVNIDTEWRSDWKWDRVMPHLSDLTGRTILDVGCGSGYHMWRMIGAGAHLAVGIDPTQLFLCQFEAVRKLLGNDQRAHLLPLGIEQLPALKAFDTVFSMGVLYHRRSPLEHLWQLKDQLVNEGELVLETLVIDGDENTVLVPGDRYAQMRNVYFIPSALALKNWLKKCGFVDIRIADVSVTTTEEQRRTEWMVTESLADFLDPHDPGKTVEGYPAPKRAVLIARKP,not soluble
17,MGSDKIHHHHHHMSIEAYDQLAIFAVVARERSFTRAAARLGMSQPALSRAMRQLEERLGIRLLARTTRSVSATEAGEHLLRVVAPRFEEIDTELALLSQFRDKPAGRLRITAGEHPAVTILQPALAKILPDHPDIRVEVIVDYGLTDIVAEGYDAGVRLGEQIAKDMIAVRIGPEVRMAVVGSPDYFARHPRPRTPRDLIRHNCIAIRLPTYGGIFPWEFEKKGEELKVRVEGQLVFNNIAMRLDAALRGLGLTYMPEDLVKAHVREGVLVRVLSDWCPPIPGYHLYYPSRRQSSPAFTVLRDALRYLG,not soluble
18,MAGLTRALVARHALGRAEAYDAALLDVAQDHLLYLLSQTVQFGDNRLVFKGGTSLRKCRLGNVGRFSTDLDFSAPDDEVVLEVCELIDGARVGGFEFGVQSTRGDGRHWQLRVRHTELGEPRIVASVEFARRPLALPSELLAFIQLPIHKAYGFGLPTLPVVAEAEACAEKLARYRRVALARDLYDLNHFASRTIDEPLVRRLWVLKVWGDVVDDRRGTRPLRVEDVLAARSEHDFQPDSIGVLTRPVAMAAWEARVRKRFAFLTDLDADEQRWAACDERHRREVENALAVLRS,soluble
19,NEVESGYYFTTLDHYIYEAEEANLGPGVVVVERQYIQDRIPSWTGPGFVRVPEGAYLEFFIDNIPYSMEYEILIRYEPQLPDHWEKAVITVQRPGKIPASSRCGNTVPDDDNQVVSLSPGSRYVVLPRPVCFEKGMNYTVRLELPQYTASGSDVESPYTFIDSLVLMPYCKSLDIFTVGGSGDGEVTNSAWETFQRYRCLENSRSVVKTPMTDVCRNIIFSISALIHQTGL,soluble
20,MHLDRQSLEKAKHLIQSGLIDTIEVGTIKGLQEIHRFLFEGLYEFAGKIRDKNIAKGNFRFANCLYLDLILPRIESMPQNNFNQIVEKYVEMNIAHPFLEGNGRATRIWLDLLLKKELKKIVLWDRIDKAAYLSAMERSPVNDLEIKTLLKKHLSSNTNDPLTLIKGITQSYYYEGL,soluble
21,CLEDILSATKMVINLCLPQFRPRIHCNKISADGYEVENLISEDLTKRSHGFRTEYFIKPPVYVTVSFPFNVEICRINIDLTAGGGQNVTGLEMYTSASSSRVSWNTPQCRTLGPAEPSVPDKEAFTLVGKVLLKNQSQVVFSHRGFKARPPFGAMEATLPSPAVVAQELWNKGALSLSHVAHLRICITHVTGGGIPCIKRLEVWGQPAKTCSQEVIDSILLVTSENLPQDVALQAPALPMESDCDPGDQPESQQAPSSLQKLAEIIQDVPEEFLDPITLEIMPCPMLLPSGKVIDQSTLEKCNRSEATWGRVPSDPFTGVAFTPHSQPLPHPSLKARIDHFLLQHSIPGCHLLGRAQTALAVIPSSIVLPSQKRKIEQAEHVPDSNFGVNASCFSATSPLVLPTTSEHTAKKMKATNEPSLTHMDCSTGPLSHEQKLSQSLEIALASTLGSMPSFTARLTRGQLQHLGTRGSNTSWRPGTGSEQPGSILGPECASCKRVFSPYFKKEPVYQLPCGHLLCRPCLGEKQRSLPMTCTACQRPVASQDVLRVHF,soluble
22,MNPNFLDFEQPIADLQAKIEELRLVGNDNSLNIGDEISRLQDKSKTLTESIFGNLTSWQIARMARHPRRPYTLDYIENIFTEFDELHGDRHFSDDAAIVGGIARLDNQPVMIIGHQKGREVREKVRRNFGMPRPEGYRKACRLMEMAERFKMPILTFIDTPGAYPGIDAEERNQSEAIAWNLRVMARLKTPIIATVIGEGGSGGALAIGVCDQLNMLQYSTYAVISPEGCASILWKTAEKAPDAAEAMGITADRLKGLGIVDKVIAEPLGGAHRDPVAAAALIREELSSQLAMLKAFDNDALLARRYDRLMSYGL,not soluble
